These results are taken from patent US20250361317A1 (Janssen / Centocor, published 2025).

Test [1] deals with T1, T-cell receptor with TRBV19 (Vβ17) beta chain on human T cells (human).
T1 construct: whole, on cells; also called Vb17; TRBV19+ T cells
As to the kind of experiment: flow cytometry, % TRBV19+ T cells of live human pan-T cells, 1 hour at 37 C. On the technique in general: In flow cytometry, cells or beads pass a laser one at a time.

Test [2] has as its target T2, human EMR2 (ADGRE2, CD312) on cells (human, UniProt Q9UHX3 24-823).
T2 construct: also called huEMR2 full length; Adhesion G protein-coupled receptor E2
T2 sequence: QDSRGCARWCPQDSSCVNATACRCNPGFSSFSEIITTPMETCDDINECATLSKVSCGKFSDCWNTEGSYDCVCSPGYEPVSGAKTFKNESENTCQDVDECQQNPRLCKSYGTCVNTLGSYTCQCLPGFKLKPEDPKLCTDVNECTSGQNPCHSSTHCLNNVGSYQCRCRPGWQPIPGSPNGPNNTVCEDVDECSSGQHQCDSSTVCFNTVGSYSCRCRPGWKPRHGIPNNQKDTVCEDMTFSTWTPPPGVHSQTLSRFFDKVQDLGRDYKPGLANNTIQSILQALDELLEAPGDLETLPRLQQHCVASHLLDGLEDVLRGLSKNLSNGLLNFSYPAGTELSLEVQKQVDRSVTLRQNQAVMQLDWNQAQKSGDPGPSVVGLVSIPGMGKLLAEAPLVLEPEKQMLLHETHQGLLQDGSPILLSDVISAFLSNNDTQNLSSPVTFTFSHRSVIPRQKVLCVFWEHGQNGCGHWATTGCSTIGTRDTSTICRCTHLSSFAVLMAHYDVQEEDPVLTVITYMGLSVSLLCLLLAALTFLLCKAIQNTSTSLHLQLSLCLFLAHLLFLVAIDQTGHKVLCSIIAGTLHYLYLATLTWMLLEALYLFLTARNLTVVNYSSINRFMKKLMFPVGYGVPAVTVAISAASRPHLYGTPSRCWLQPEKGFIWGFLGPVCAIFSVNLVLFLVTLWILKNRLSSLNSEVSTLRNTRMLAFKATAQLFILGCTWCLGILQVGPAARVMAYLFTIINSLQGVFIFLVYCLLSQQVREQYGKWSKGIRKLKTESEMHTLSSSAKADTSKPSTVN
As to the kind of experiment: flow cytometry, median AF647 of live cells, OCI-AML5 WT cells, 1 hour at 37 C.

Test [3] addresses T2, human EMR2 (ADGRE2, CD312) on cells. As to the kind of experiment: flow cytometry, median AF647 of live cells, MOLM 13 cells, 1 hour at 37 C.
Test [4] concerns the target T3, EMR2W4, huEMR2 GAIN domain + GPS, D261-T540, with C-terminal Avi/6x His tag (human).
T3 construct: also called Human EMR2 GAIN domain protein
T3 chain: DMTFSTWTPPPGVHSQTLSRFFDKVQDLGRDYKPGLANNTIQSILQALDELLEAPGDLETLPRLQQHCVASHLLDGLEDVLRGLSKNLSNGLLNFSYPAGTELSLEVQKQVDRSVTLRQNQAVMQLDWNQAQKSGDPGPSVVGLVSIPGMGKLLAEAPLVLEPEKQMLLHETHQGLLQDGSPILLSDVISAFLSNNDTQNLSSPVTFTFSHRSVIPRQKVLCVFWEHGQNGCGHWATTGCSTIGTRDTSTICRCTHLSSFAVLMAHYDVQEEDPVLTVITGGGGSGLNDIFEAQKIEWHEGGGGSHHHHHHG
The experiment in a line: SPR, row 'SPR (KD) / EMR2' of the Forced Degradation table; stress condition of the KD and EMR2 construct not named on the sheet.

T1 sequence (A0A075B6N1 22-114): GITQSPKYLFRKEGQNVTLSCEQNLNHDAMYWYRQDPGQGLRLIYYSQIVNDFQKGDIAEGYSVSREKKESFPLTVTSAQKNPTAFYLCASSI

B1: EMVBB27 (bispecific antibody, human IgG1, kappa, L234A L235A)
heavy chain 1 (Vb17 arm, B17B21-LC-N33S Fab): QVQLQESGPGLVKPSETLSLTCTVSGYSITSGYFWNWIRQPPGKGLEWIGYISYDGSNNYNPSLKSRVTISRDTSKNQFSLKLSSVTAADTAVYYCASPSPGTGYAVDYWGQGTLVTVSSASTKGPSVFPLAPSSKSTSGGTAALGCLVKDYFPEPVTVSWNSGALTSGVHTFPAVLQSSGLYSLSSVVTVPSSSLGTQTYICNVNHKPSNTKVDKKVEPKSCDKTHTCPPCPAPEAAGGPSVFLFPPKPKDTLMISRTPEVTCVVVSVSHEDPEVKFNWYVDGVEVHNAKTKPREEQYNSTYRVVSVLTVLHQDWLNGKEYKCKVSNKALPAPIEKTISKAKGQPREPQVYTLPPSREEMTKNQVSLWCLVKGFYPSDIAVEWESNGQPENNYKTTPPVLDSDGSFFLYSKLTVDKSRWQQGNVFSCSVMHEALHNRFTQKSLSLSPGK
light chain 1 (Vb17 arm, B17B21-LC-N33S Fab): DIQMTQSPSSLSASVGDRVTITCRSSQSLVHSSGNTYLHWYQQKPGKAPKFLIYKVSNRFSGVPSRFSGSGSGTDFTLTISSLQPEDFATYYCSQSTHVPFTFGQGTKLEIKRTVAAPSVFIFPPSDEQLKSGTASVVCLLNNFYPREAKVQWKVDNALQSGNSQESVTEQDSKDSTYSLSSTLTLSKADYEKHKVYACEVTHQGLSSPVTKSFNRGEC
heavy chain 2 (EMR2 arm, EMR2B57-LH-spFv fused to Fc): QSALTQPASVSGSPGQSITISCTGTSSDVGGYNYVSWYQQHPGCAPKLMIYEVSYRPSGVSNRFSGSKSGNTASLTISGLQAEDEADYYCSSYTSSSTYVVFGGGTKLTVLGGGSGGSGGCPPCGGSGGEVQLVESGGGLVQPGGSLRLSCAASGFTFRSYWMHWVRQAPGKGLVWVSRISSGGSTTNYADSVKGRFTISRDNAKNTLYLQMNSLRAEDTAIYYCARGDNYYDSPYFDYWGCGTLVTVSSEPKSSDKTHTCPPCPAPEAAGGPSVFLFPPKPKDTLMISRTPEVTCVVVSVSHEDPEVKFNWYVDGVEVHNAKTKPREEQYNSTYRVVSVLTVLHQDWLNGKEYKCKVSNKALPAPIEKTISKAKGQPREPQVYTLPPSREEMTKNQVSLSCAVKGFYPSDIAVEWESNGQPENNYKTTPPVLDSDGSFFLVSKLTVDKSRWQQGNVFSCSVMHEALHNHYTQKSLSLSPGK
notes: also called EMVBB27.003; TPP000263194
Regarding B1, the EC50 (usually the concentration giving half of the maximal effect) in test [1] came out at 8.03 nM; in test [2], 296 nM; in test [3], 301 nM. Also, the “Max % TRV19+” value in test [1] is 6.62%. The “Max (MFI)” value came out at 250000 MFI in test [2] and 420000 MFI in test [3].

B2: EMVBB6 (bispecific antibody, human IgG1, lambda, L234A L235A)
heavy chain 1 (Vb17 arm, B17B852-G34R-LH-spFv fused to Fc): DIQMTQSPSSLSASVGDRVTITCRSSQSLVHSNRNTYLHWYQQKPGCAPKLLIYKVSNRFSGVPSRFSGSGSGTDFTLTISSLQPEDFATYYCSQSTHVPFTFGQGTKLEIKGGGSGGSGGCPPCGGSGGQVQLQESGPGLVKPSETLSLTCTVSGYSITSGYFWNWIRQFPGKGLEWMGYISYDGSNNYNPSLKSRITISRDTSKNQFSLKLSSVTAADTAVYYCASPSPGTGYAVDYWGCGTTVTVSSEPKSSDKTHTCPPCPAPEAAGGPSVFLFPPKPKDTLMISRTPEVTCVVVSVSHEDPEVKFNWYVDGVEVHNAKTKPREEQYNSTYRVVSVLTVLHQDWLNGKEYKCKVSNKALPAPIEKTISKAKGQPREPQVYTLPPSREEMTKNQVSLWCLVKGFYPSDIAVEWESNGQPENNYKTTPPVLDSDGSFFLYSKLTVDKSRWQQGNVFSCSVMHEALHNHYTQKSLSLSPGK
heavy chain 2 (EMR2 arm, EMR2B361 Fab): EVQLVQSGGGLVKPGGSLRLSCVASGFIFRSYSMNWVRQAPGKGLEWVSSISSSSSYIYYADSVKGRFTISRDNAKNSLYLQMDSLRAEDTAVYYCARREYGGPFDYWGQGTLVTVSSASTKGPSVFPLAPSSKSTSGGTAALGCLVKDYFPEPVTVSWNSGALTSGVHTFPAVLQSSGLYSLSSVVTVPSSSLGTQTYICNVNHKPSNTKVDKKVEPKSCDKTHTCPPCPAPEAAGGPSVFLFPPKPKDTLMISRTPEVTCVVVSVSHEDPEVKFNWYVDGVEVHNAKTKPREEQYNSTYRVVSVLTVLHQDWLNGKEYKCKVSNKALPAPIEKTISKAKGQPREPQVYTLPPSREEMTKNQVSLSCAVKGFYPSDIAVEWESNGQPENNYKTTPPVLDSDGSFFLVSKLTVDKSRWQQGNVFSCSVMHEALHNRFTQKSLSLSPGK
light chain 2 (EMR2 arm, EMR2B361 Fab): QSVLTQPPSVFAAPGEKVTISCSGSSSNIGNDYVSWYQQLPGTAPKLLIYDNNKRPSGIPDRFSGSKSGTSATLGITGLQTGDEADYYCGTWDSSLSAGYVFGTGTKVTVLGQPKAAPSVTLFPPSSEELQANKATLVCLISDFYPGAVTVAWKADSSPVKAGVETTTPSKQSNNKYAASSYLSLTPEQWKSHRSYSCQVTHEGSTVEKTVAPTECS
notes: also called TPP000258023
Turning to B2, in test [1], the EC50 worked out at 14.5 nM and the “Max % TRV19+” value stood at 9.15%. Moreover, in test [2], the EC50 worked out at 15.2 nM and the “Max (MFI)” value was determined as 250000 MFI. In addition, in test [3], a half-maximal response (EC50) required 12.6 nM and the “Max (MFI)” value came to 330000 MFI. For the same molecule, the Kd – broadly, the constant that tells how readily two partners part at equilibrium – in test [4] was 0.186 nM.

B3: EMVBB7 (bispecific antibody, human IgG1, lambda, L234A L235A)
heavy chain 1 (Vb17 arm, B17B852-G34R-LH-spFv fused to Fc): DIQMTQSPSSLSASVGDRVTITCRSSQSLVHSNRNTYLHWYQQKPGCAPKLLIYKVSNRFSGVPSRFSGSGSGTDFTLTISSLQPEDFATYYCSQSTHVPFTFGQGTKLEIKGGGSGGSGGCPPCGGSGGQVQLQESGPGLVKPSETLSLTCTVSGYSITSGYFWNWIRQFPGKGLEWMGYISYDGSNNYNPSLKSRITISRDTSKNQFSLKLSSVTAADTAVYYCASPSPGTGYAVDYWGCGTTVTVSSEPKSSDKTHTCPPCPAPEAAGGPSVFLFPPKPKDTLMISRTPEVTCVVVSVSHEDPEVKFNWYVDGVEVHNAKTKPREEQYNSTYRVVSVLTVLHQDWLNGKEYKCKVSNKALPAPIEKTISKAKGQPREPQVYTLPPSREEMTKNQVSLWCLVKGFYPSDIAVEWESNGQPENNYKTTPPVLDSDGSFFLYSKLTVDKSRWQQGNVFSCSVMHEALHNHYTQKSLSLSPGK
heavy chain 2 (EMR2 arm, EMR2B410 Fab): EVQLVESGGGLVQPGGSLRLSCAASGFTFSSYWMHWVRQVPGKGLVWVSRISSHGSSTSYADSVKGRFTISRDNAKNALYLQMNSLRAEDTAVYYCARGGNYYDSPYFDYWGQGTLVTVSSASTKGPSVFPLAPSSKSTSGGTAALGCLVKDYFPEPVTVSWNSGALTSGVHTFPAVLQSSGLYSLSSVVTVPSSSLGTQTYICNVNHKPSNTKVDKKVEPKSCDKTHTCPPCPAPEAAGGPSVFLFPPKPKDTLMISRTPEVTCVVVSVSHEDPEVKFNWYVDGVEVHNAKTKPREEQYNSTYRVVSVLTVLHQDWLNGKEYKCKVSNKALPAPIEKTISKAKGQPREPQVYTLPPSREEMTKNQVSLSCAVKGFYPSDIAVEWESNGQPENNYKTTPPVLDSDGSFFLVSKLTVDKSRWQQGNVFSCSVMHEALHNRFTQKSLSLSPGK
light chain 2 (EMR2 arm, EMR2B410 Fab): QSALTQPASVSGSPGQSITISCTGTSSDVGGYNYVSWYQQHPGKAPKLMIYEVSYRPSGISNRFSGSKSGDTASLTISGLQAEDEADYYCSSYTSSSTYVVFGGGTKVTVLGQPKAAPSVTLFPPSSEELQANKATLVCLISDFYPGAVTVAWKADSSPVKAGVETTTPSKQSNNKYAASSYLSLTPEQWKSHRSYSCQVTHEGSTVEKTVAPTECS
notes: also called TPP000258024
Consider B3, for which the Kd in test [4] amounted to 1.47 nM.
